Laboratory results taken from paper PMC3567105, “Analysis of the Enzymatic Properties of a Broad Family of Alanine Aminotransferases” (PLoS ONE, 2013).

Experiments:
Test in all cases: cells, lysate or membranes
[1] = substrate: CC(=O)C(=O)O; type: biochemical, Hordeum vulgare; conditions: 50 mM glutamate, 100 mM NH4Cl, 0.1 M Tris-HCl pH 8.0, 20°C, 10 µM PLP, unpurified extract
[2] = substrate: O=C(O)CCC(=O)C(=O)O; type: biochemical, Hordeum vulgare; conditions: 100 mM alanine, 0.1 M Tris-HCl pH 8.0, 20°C, 10 µM PLP, unpurified extract
[3] = substrate: CC(=O)C(=O)O; type: biochemical, Arabidopsis thaliana; conditions: 50 mM glutamate, 100 mM NH4Cl, 0.1 M Tris-HCl pH 8.0, 20°C, 10 µM PLP, unpurified extract
[4] = substrate: O=C(O)CCC(=O)C(=O)O; type: biochemical, Arabidopsis thaliana; conditions: 100 mM alanine, 0.1 M Tris-HCl pH 8.0, 20°C, 10 µM PLP, unpurified extract
[5] = substrate: C[C@H](N)C(=O)O; conditions: 10 mM 2-oxoglutarate, 0.1 M Tris-HCl pH 8.0, 20°C, 10 µM PLP, unpurified extract
[6] = substrate: O=C(O)CCC(=O)C(=O)O; type: biochemical, Saccharomyces cerevisiae; conditions: 100 mM alanine, 0.1 M Tris-HCl pH 8.0, 20°C, 10 µM PLP, unpurified extract
[7] = substrate: N[C@@H](CCC(=O)O)C(=O)O; type: biochemical, Arabidopsis thaliana; conditions: 10 mM pyruvate, 100 mM NH4Cl, 0.1 M Tris-HCl pH 8.0, 20°C, 10 µM PLP, unpurified extract
[8] = substrate: O=C(O)CCC(=O)C(=O)O; type: biochemical, Mus musculus; conditions: 100 mM alanine, 0.1 M Tris-HCl pH 8.0, 20°C, 10 µM PLP, unpurified extract
[9] = substrate: N[C@@H](CCC(=O)O)C(=O)O; type: biochemical, Mus musculus; conditions: 10 mM pyruvate, 100 mM NH4Cl, 0.1 M Tris-HCl pH 8.0, 20°C, 10 µM PLP, unpurified extract
[10] = substrate: O=C(O)CCC(=O)C(=O)O; type: biochemical, Pyrococcus furiosus; conditions: 100 mM alanine, 0.1 M Tris-HCl pH 8.0, 20°C, 10 µM PLP, unpurified extract
[11] = substrate: N[C@@H](CCC(=O)O)C(=O)O; type: biochemical, Pyrococcus furiosus; conditions: 10 mM pyruvate, 100 mM NH4Cl, 0.1 M Tris-HCl pH 8.0, 20°C, 10 µM PLP, unpurified extract

Protein | Km [3] | Km [4] | Km [5] | other results
HvAlaAT (Hordeum vulgare) (protein, untagged, from cDNA, pBAD18-Kan, E. coli TR61, desalted whole-protein extract, not purified) MAATVAVDNLNPKVLKCEYAVRGEIVIHAQRLQEQLKTQPGSLPFDEILYCNIGNPQSLGQQPVTFFREVLALCDHPDLLQREEIKTLFSADSISRAKQILAMIPGRATGAYSHSQGIKGLRDAIASGIASRDGFPANADDIFLTDGASPGVHLMMQLLIRNEKDGILVPIPQYPLYSASIALHGGALVPYYLNESTGWGLETSDVKKQLEDARSRGINVRALVVINPGNPTGQVLAEENQYDIVKFCKNEGLVLLADEVYQENIYVDNKKFHSFKKIVRSLGYGEEDLPLVSYQSVSKGYYGECGKRGGYFEITGFSAPVREQIYKIASVNLCSNITGQILASLVMNPPKASDESYASYKAEKDGILASLARRAKALEHAFNKLEGITCNEAEGAMYVFPQICLPQKAIEAAKAANKAPDAFYALRLLESTGIVVVPGSGFGQVPGTWHFRCTILPQEDKIPAVISRFTVFHEAFMSEYRD | – | – | – | Km [1]: 100 ± 0 µM; Km [2]: 200 ± 0 µM
AtGGAT1 (Arabidopsis thaliana) (protein, untagged, pBAD18-Kan, E. coli TR61, desalted whole-protein extract, not purified) MALKALDYDTLNENVKKCQYAVRGELYLRASELQKEGKKIIFTNVGNPHALGQKPLTFPRQVVALCQAPFLLDDPNVGMLFPADAIARAKHYLSLTSGGLGAYSDSRGLPGVRKEVAEFIQRRDGYPSDPELIFLTDGASKGVMQILNCVIRGNGDGILVPVPQYPLYSATISLLGGTLVPYYLDESENWGLDVANLRQSVAQARSQGITVRAMVIINPGNPTGQCLSEANIREILKFCYNEKLVLLGDEVYQQNIYQDERPFISSKKVLMEMGSPFSKEVQLVSFHTVSKGYWGECGQRGGYFEMTNLPPRVVEEIYKVASIALSPNVSAQIFMGLMVNPPKPGDISYDQFARESKGILESLRRRARLMTDGFNSCKNVVCNFTEGAMYSFPQIRLPTGALQAAKQAGKVPDVFYCLKLLEATGISTVPGSGFGQKEGVFHLRTTILPAEDEMPEIMDSFKKFNDEFMTQYDNNFGYSKM | 600 ± 100 µM | 200 ± 100 µM | 1900 ± 500 µM | –
ScAlaAT1 (Saccharomyces cerevisiae S288C) (protein, untagged, pBAD18-Kan, E. coli TR61, desalted whole-protein extract, not purified) SSSWIVAQNHRRSLSGQSSLNDLRHLNRFPHHTLKTSNNEFYPAEQLTLEDVNENVLKAKYAVRGAIPMRAEELKAQLEKDPQSLPFDRIINANIGNPQQLQQKPLTYYRQVLSLLQYPELLNQNEQQLVDSKLFKLDAIKRAKSLMEDIGGSVGAYSSSQGVEGIRKSVAEFITKRDEGEISYPEDIFLTAGASAAVNYLLSIFCRGPETGVLIPIPQYPLYTATLALNNSQALPYYLDENSGWSTNPEEIETVVKEAIQNEIKPTVLVVINPGNPTGAVLSPESIAQIFEVAAKYGTVVIADEVYQENIFPGTKFHSMKKILRHLQREHPGKFDNVQLASLHSTSKGVSGECGQRGGYMELTGFSHEMRQVILKLASISLCPVVTGQALVDLMVRPPVEGEESFESDQAERNSIHEKLITRAMTLYETFNSLEGIECQKPQGAMYLFPKIDLPFKAVQEARHLELTPDEFYCKKLLESTGICTVPGSGFGQEPGTYHLRTTFLAPGLEWIKKWESFHKEFFDQYRD | – | – | 300 ± 100 µM | Km [6]: 500 ± 100 µM
AtGGAT2 (Arabidopsis thaliana) (protein, untagged, pBAD18-Kan, E. coli TR61, desalted whole-protein extract, not purified) MSLKALDYESLNENVKNCQYAVRGELYLRASELQKEGKKIIFTNVGNPHALGQKPLTFPRQVVSLCQAPFLLDDPNVGMIFPADAIARAKHYLSLTSGGLGAYSDSRGLPGVRKEVAEFIERRDGYPSDPELIFLTDGASKGVMQILNCVIRGQKDGILVPVPQYPLYSATISLLGGTLVPYYLEESENWGLDVNNLRQSVAQARSQGITVRAMVIINPGNPTGQCLSEANIREILRFCCDERLVLLGDEVYQQNIYQDERPFISSKKVLMDMGAPISKEVQLISFHTVSKGYWGECGQRGGYFEMTNIPPRTVEEIYKVASIALSPNVSAQIFMGLMVSPPKPGDISYDQFVRESKGILESLRRRARMMTDGFNSCKNVVCNFTEGAMYSFPQIKLPSKAIQAAKQAGKVPDVFYCLKLLEATGISTVPGSGFGQKEGVFHLRTTILPAEEEMPEIMDSFKKFNDEFMSQYADNFGYSRM | 18500 ± 2700 µM | 8800 ± 1800 µM | 1200 ± 100 µM | –
AtAlaAT2 (Arabidopsis thaliana) (protein, untagged, pBAD18-Kan, E. coli TR61, desalted whole-protein extract, not purified) SSTSEMSASDSTSSLPVTLDSINPKVLKCEYAVRGEIVNIAQKLQEDLKTNKDAYPFDEIIYCNIGNPQSLGQLPIKFFREVLALCDHASLLDESETHGLFSTDSIDRAWRILDHIPGRATGAYSHSQGIKGLRDVIAAGIEARDGFPADPNDIFLTDGASPAVHMMMQLLLSSEKDGILSPIPQYPLYSASIALHGGSLVPYYLDEATGWGLEISDLKKQLEEARSKGISVRALVVINPGNPTGQVLAEENQRDIVNFCKQEGLVLLADEVYQENVYVPDKKFHSFKKVARSLGYGEKDISLVSFQSVSKGYYGECGKRGGYMEVTGFTSDVREQIYKMASVNLCSNISGQILASLVMSPPKPGDDSYDSYMAERDGILSSMAKRAKTLEDALNSLEGVTCNRAEGAMYLFPRINLPQKAIEAAEAEKTAPDAFYCKRLLNATGVVVVPGSGFGQVPGTWHFRCTILPQEDKIPAIVNRLTEFHKSFMDEFRN | 5100 ± 900 µM | 1000 ± 100 µM | – | Km [7]: 4900 ± 1100 µM
MmAlaAT1 (Mus musculus) (protein, untagged, pBAD18-Kan, E. coli TR61, desalted whole-protein extract, not purified) ASQRNDRIQASRNGLKGKVLTLDTMNPCVRRVEYAVRGPIVQRALELEQELRQGVKKPFTEVIRANIGDAQAMGQRPITFFRQVLALCVYPNLLSSPDFPEDAKRRAERILQACGGHSLGAYSISSGIQPIREDVAQYIERRDGGIPADPNNIFLSTGASDAIVTMLKLLVAGEGRARTGVLIPIPQYPLYSAALAELDAVQVDYYLDEERAWALDIAELRRALCQARDRCCPRVLCVINPGNPTGQVQTRECIEAVIRFAFEEGLFLMADEVYQDNVYAEGSQFHSFKKVLTEMGPPYATQQELASFHSVSKGYMGECGFRGGYVEVVNMDAEVQKQMAKLMSVRLCPPVPGQALMGMVVSPPTPSEPSFKQFQAERQEVLAELAAKAKLTEQVFNEAPGIRCNPVQGAMYSFPQIQLPLKAVQRAQDLGLAPDMFFCLCLLEETGICVVPGSGFGQQEGTYHFRMTILPPMEKLRVLLEKLRHFHAKFTHEYS | – | – | – | Km [8]: 100 ± 100 µM; Km [9]: 13000 ± 2400 µM
AtAlaAT1 (Arabidopsis thaliana) (protein, untagged, pBAD18-Kan, E. coli TR61, desalted whole-protein extract, not purified) SASDSSSSLPVTLDTINPKVIKCEYAVRGEIVNIAQKLQEDLKTNKDAYPFDEIIYCNIGNPQSLGQQPITFFREVLALCSYTALLDESATHGLFSSDSIERAWKILDQIPGRATGAYSHSQGIKGLRDAIADGIEARDGFPADPNDIFMTDGASPGVHMMMQLLITSEKDGILCPIPQYPLYSASIALHGGTLVPYYLDEASGWGLEISELKKQLEDARSKGITVRALAVINPGNPTGQVLSEENQRDVVKFCKQEGLVLLADEVYQENVYVPDKKFHSFKKVARSMGYGEKDLALVSFQSVSKGYYGECGKRGGYMEVTGFTSDVREQIYKMASVNLCSNISGQILASLIMSPPKPGDDSYESYIAEKDGILSSLARRAKTLEEALNKLEGVTCNRAEGAMYLFPCLHLPQKAIAAAEAEKTAPDNFYCKRLLKATGIVVVPGSGFRQVPGTWHFRCTILPQEDKIPAIVDRLTAFHQSFMDEFRD | 100 ± 0 µM | 100 ± 0 µM | 2400 ± 500 µM | –
PfAlaAT (Pyrococcus furiosus DSM 3638) (protein, untagged, pBAD18-Kan, E. coli TR61, desalted whole-protein extract, not purified) MIRASKRALSVEYAIRDVVLPARELEKKGIKVIRLNIGDPVKFDFQPPEHMKEAYCKAIKEGHNYYGDSEGLPELRKAIVEREKRKNGVDITPDDVRVTAAVTEALQLIFGALLDPGDEILVPGPSYPPYTGLVKFYGGKPVEYRTIEEEDWQPDIDDIRKKITDRTKAIAVINPNNPTGALYDKKTLEEILNIAGEYEIPVISDEIYDLMTYEGEHISPGSLTKDVPVIVMNGLSKVYFATGWRLGYMYFVDPENKLSEVREAIDRLARIRLCPNTPAQFAAIAGLTGPMDYLKEYMKKLKERRDYIYKRLNEIPGISTTKPQGAFYIFPKIEVGPWKNDKEFVLDVLHNAHVLFVHGSGFGEYGAGHFRAVFLPPIEILEEAMDRFEKFMKERLKE | – | – | – | Km [10]: 20 ± 0 µM; Km [11]: 900 ± 100 µM
